The target of one test is T1, PD-L1(鼠) (鼠 (murine), UniProt Q9EP73 19-239, limits assumed).
T1 construct: also called 鼠源的PD-L1
In words: ELISA, antigen coated 0.5 μg per well, detection with rabbit anti-HA and HRP goat anti-rabbit. On the technique in general: In an ELISA, binding on a coated surface is turned into a signal by an enzyme label.

For another test, the target named is T2, PD-L2(人) (human, UniProt Q9BQ51 20-220, limits assumed).
T2 construct: also called 人PD-L2
T2 sequence (looked up): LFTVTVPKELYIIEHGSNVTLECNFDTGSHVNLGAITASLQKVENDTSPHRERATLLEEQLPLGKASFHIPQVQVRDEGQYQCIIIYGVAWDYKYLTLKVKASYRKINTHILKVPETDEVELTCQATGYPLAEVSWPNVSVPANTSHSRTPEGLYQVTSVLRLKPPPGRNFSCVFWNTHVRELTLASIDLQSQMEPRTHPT
The description is as above.

T1 sequence (Q9EP73 19-239 limits assumed): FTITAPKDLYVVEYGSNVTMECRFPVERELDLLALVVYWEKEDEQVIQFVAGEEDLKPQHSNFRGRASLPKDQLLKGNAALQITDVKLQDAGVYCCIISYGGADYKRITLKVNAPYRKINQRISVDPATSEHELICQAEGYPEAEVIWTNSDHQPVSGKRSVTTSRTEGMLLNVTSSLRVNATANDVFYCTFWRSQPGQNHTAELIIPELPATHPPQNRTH

B1: 抗PD-L1Nb15 (VHH)
VHH: QVQLVESGGGSVQAGGALRLSCAASGYTSTSNCMGWFRQAPGKEREGVAAIYTGGGSTYYADSVKGRFTISQDNAKNTVYLQMNSLKPEDTAMYYCAAGDLDPAEYSDYDPTVFNYWGQGTLVTVSS
notes: Expressed from pET32a in E. coli BL21(DE3), purified on Ni-IDA and detected in ELISA with an anti-HA antibody; the vector-derived tags are not described; also called antiPD-L1Nb15; 抗PD-L1-VHH15
In the case of B1, the binding result with PD-L1(鼠) and with PD-L2(人) was “no binding (tested: 10μg/mL)” in each case.
